{
  "source": "patent US20090311265A1",
  "binders": {"B1": {"name": "CR6329 (antibody, V domains shown)", "VH": "EVQLVQSGAEVKKPGSSVKVSCKASGGIFRSNSISWVRQAPGQGLEWMGGIFALFGTTDYAQKFQGRVTITADESSTTVYLELSSLTSEDTAVYYCARGSGYTTRNYFDYWGQGTLVTVSS", "VL": "EIVLTQSPGTLSLSPGERATLSCRASQSVSSNYLGWYQQKPGQAPRLLIYGASSRASGIPDRFSGGGSGTDFTLTISRLEPEDFAVYYCQQYGSSPLTFGGGTKVEIKR"}},
  "key": {"[1]": {"target": "recombinant HA, subtype H7 (A/Netherlands/219/03 (H7N7)) (influenza A virus A/Netherlands/219/03 (H7N7))", "assay": "ELISA, coated HA, IgG 5 µg/ml"}, "[2]": {"target": "recombinant HA, subtype H9 (A/Hong Kong/1073/99 (H9N2)) (influenza A virus A/Hong Kong/1073/99 (H9N2))", "assay": "ELISA, coated HA, IgG 5 µg/ml"}},
  "data": [
    {"binder": "B1", "values": [
      {"measurement": "OD 492 nm", "setting": "[1]", "result": 0.17, "unit": "OD 492 nm"},
      {"measurement": "OD 492 nm", "setting": "[2]", "result": 2.16, "unit": "OD 492 nm"}
    ]}
  ]
}
